No end group written: not given here.
biological target: T1, NBL1 (AA 1-180) protein (FcTag) (Homo sapiens, UniProt P41271); experiment: PEPperCHIP Discovery Microarray screening of cyclic peptide binders; assay type: binding; conditions: cyclic peptides of common structure S1 with the given SEQ; NBL1 at 10 μg/ml
T1 construct: NBL1 (AA 1-180) protein (FcTag); purchased SinoBiological (via AntibodiesOnline) BIN2002229
T1 sequence (P41271 17-180): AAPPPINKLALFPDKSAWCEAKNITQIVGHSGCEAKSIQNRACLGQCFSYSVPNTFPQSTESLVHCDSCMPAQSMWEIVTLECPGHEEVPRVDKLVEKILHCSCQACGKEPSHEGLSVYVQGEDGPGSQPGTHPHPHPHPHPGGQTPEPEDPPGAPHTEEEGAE
Text: The peptide target binder discovery screening was done with PEPperCHIP® Discovery Microarrays with 36,040 random peptides with alength of 12 amino acids printed in duplicate (72,080 peptide spots). After peptide synthesis, all peptides were cyclized via a thioetherlinkage between a C-terminal cysteine side chain and an appropriately modified N-terminus. The PEPperCHIP® Discovery Microarrays contained additional myc(EQKLISEEDL, 415 spots) and HA (YPYDVPDYAG, 420 spots) control peptides as specified in the peptide maps of the microarray data files.
Samples: NBL1 (AA 1-180) protein (FcTag) (SinoBiological, AntibodiesOnline BIN2002229) Washing Buffer: PBS, pH 7.4 with 0.005% Tween 20 (2×10 sec after each assay) Blocking Buffer: Rockland blocking buffer MB-070 (30 min before the first assay) Incubation Buffer: Washing buffer with 1% blocking buffer Assay Conditions: Protein concentrations of […] in incubation buffer; incubation for 16 h at 4° C. and shaking at 140 rpm Secondary Antibodies: Mouse natriuretic peptides B DyLight800 antibody (1:5000; Hytest, AntibodiesOnline product ABIN263370), goat anti-human IgG (Fc) DyLight680 (1:5000); 45 min staining in incubation buffer at RT Control Antibodies: Mouse monoclonal anti-HA (12CA5) DyLight680(1:2000), mouse monoclonal anti-HA (12CA5) DyLight800 (1:2000); 45 min staining in incubation buffer at RT Scanner: LI-COR Odyssey Imaging System; scanning offset 0.65 mm, resolution 21 μm, scanning intensities of 7/7 (red=700 nm/green=800 nm)
After 15 min pre-swelling in washing buffer and 30 min in blocking buffer, two PEPperCHIP® Discovery Microarrays were initially incubated with the secondary antibodies mouse natriuretic peptides B DyLight800 (1:5000) and goat anti-human IgG (Fc) DyLight680 (1:5000) as well as with the control antibodies in incubation buffer to analyze background interactions with the 36,040 different random cyclic constrained peptides of the microarrays. Subsequent incubation of the PEPperCHIP® Discovery Microarrays was done with target proteins NBL1 at concentrations of 1 μg/ml and 10 μg/ml in incubation buffer and followed by staining with the secondary antibodies as well as read-out with a LI-COR Odyssey Imaging System at scanning intensity of 7/7 (red/green). The additional HA peptides framing the peptide microarrays were simultaneously stained as internal quality control to confirm the assay quality and the peptide microarray integrity.
A software algorithm breaks down fluorescence intensities of each spot into raw, foreground and background signal, and calculates averaged median foreground intensities and spot-to-spot deviations of spot duplicates. We tolerated a maximum spot-to-spot deviation of 40%, otherwise the corresponding intensity value was zeroed. Based on averaged median foreground intensities, an intensity map was generated and interactions in the peptide map highlighted by an intensity color code with red(NBL1 for high and white for low spot intensities.
To identify the top interactions of the target proteins, the averaged and corrected intensity values were sorted by decreasing spot intensities. We further plotted averaged spot intensities of all assays against the microarray content from left on top to right on bottom of the chip to visualize overall spot intensities and signal-to-noise ratios. For a better data overview, the baselines of the intensity plots were leveled and main responses annotated next to the corresponding signal. The intensity plots were correlated with peptide and intensity maps as well as with visual inspection of the microarray scans to identify peptides that interacted with target proteins NBL1.

intensity values, 10 μg/ml | Sequence
317.5 | ARMRQTHRPVYR
338 | ARQSHRRPGGKR
290 | CHCIHFTHRRLR
216 | DFKQLLLPGRKR
554 | DMAARCVCKRRR
328 | DSRKFFYRGNRR
448 | FDWRISQRMRRR
174.5 | FPMCQKVPFVRR
195 | FPQSRGRGKLWR
215 | FWFHLKYWAWRR
214 | GDRGCFFIVTFI
192 | GRHLPEASKRFR
176.5 | HTWPYALTQKRR
172 | IRHSDRVDRYSR
233 | IYFYSCSVPGMY
249 | KQRSKRMASMKLF
181 | KVALFLANRLFR
190.5 | KVRALRDISYRR
193.5 | LFENCANVCIGL
212.5 | LGPAACFTSEPV
177 | LRLFKISRNFPR
213 | LRNVVFIWHIRYR
185 | LVMWHRHFALRR
251.5 | MFFRPFKGHGRR
185 | NCYHMVYYLIIL

intensity values, 10 μg/ml | Sequence
210 | NKQMNHPPRRHR
301.5 | RFNHVTCRTFKR
186 | RFTYSPTQRAYR
179.5 | RHGTRYHSRLFR
294.5 | RKKDPRAYDRFR
205 | RPRHVFKLYGRL
182.5 | RQNANKAWQKRR
187 | RRRAQPSPMRHK
234 | RYNQSIRVIIGR
236.5 | SQKMLRRGGMIRK
198 | SRHNYSHWFYRR
489 | TLRCHRHRFR
175 | TYDNYIRYFRIR
189 | VDFGGGWVCFCP
235.5 | VHQCRASRYPRI
189 | WVARDHVNHNRR (not fully specified (C-terminus, bridges); also: cyclized via thioether between C-terminal Cys side chain and modified N-terminus)
235 | WVRIRLSRRQFR (not fully specified (C-terminus, bridges); also: cyclized via thioether between C-terminal Cys side chain and modified N-terminus)
185 | YGSHYYWNHLRR (not fully specified (C-terminus, bridges); also: cyclized via thioether between C-terminal Cys side chain and modified N-terminus)
445 | YHATGVRWRFLR (not fully specified (C-terminus, bridges); also: cyclized via thioether between C-terminal Cys side chain and modified N-terminus)
283 | YHHKPQRQNRGR (not fully specified (C-terminus, bridges); also: cyclized via thioether between C-terminal Cys side chain and modified N-terminus)
197 | YMPSNCCWWWRR (not fully specified (C-terminus, bridges); also: cyclized via thioether between C-terminal Cys side chain and modified N-terminus)
200.5 | YWHKKLYYMRYR (not fully specified (C-terminus, bridges); also: cyclized via thioether between C-terminal Cys side chain and modified N-terminus)
323 | YWTKGLLWRNRR (not fully specified (C-terminus, bridges); also: cyclized via thioether between C-terminal Cys side chain and modified N-terminus)
452 | YYRIHHQRRGRS (not fully specified (C-terminus, bridges); also: cyclized via thioether between C-terminal Cys side chain and modified N-terminus)
